From US10946092 (BEIJING MABWORKS BIOTECH, dated 2021)
Where two headings read alike, the source gives them in different places. Each block holds one binder with its values, some of them ahead of it.

How the values were obtained:
[1] = molecular target: T1, recombinant human LAG3(ECD)-his (Sino Biological, Cat #: 16498-H08H) (human, UniProt P18627 23-450); experiment: SPR (BIAcore 8K), human LAG3(ECD)-his coupled to chip, antibody injected, 1:1 Langmuir; printed a second time as 'Ka values', read as Kd
T1 construct: extracellular domain; Bought protein; not shown: his tag
T1 sequence (looked up): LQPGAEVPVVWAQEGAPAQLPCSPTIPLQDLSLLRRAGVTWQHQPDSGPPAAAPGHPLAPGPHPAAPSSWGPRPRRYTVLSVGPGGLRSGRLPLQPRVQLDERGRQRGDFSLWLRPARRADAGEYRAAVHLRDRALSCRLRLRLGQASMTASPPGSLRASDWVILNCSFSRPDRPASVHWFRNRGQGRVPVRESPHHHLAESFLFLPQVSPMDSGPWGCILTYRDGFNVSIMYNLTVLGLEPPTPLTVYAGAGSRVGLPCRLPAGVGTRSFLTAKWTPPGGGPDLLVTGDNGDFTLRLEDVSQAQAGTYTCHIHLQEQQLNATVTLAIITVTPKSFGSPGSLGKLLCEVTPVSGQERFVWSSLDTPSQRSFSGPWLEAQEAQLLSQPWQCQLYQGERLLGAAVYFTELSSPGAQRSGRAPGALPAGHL
Description: (§1) Serially diluted antibodies at concentrations ranging from 0.3 μM to 10 μM were injected into the SPR running buffer (HBS-EP buffer, pH7.4, GE Life Sciences; US; Cat #: BR-1006-69) at 30 μL/minute. The binding capacities were calculated with the RUs of blank controls subtracted. The association rate (Ka) and dissociation rate (Kd) were calculated using the one-to-one Langmuir binding model (BIA Evaluation Software, GE Life Sciences). The equilibrium dissociation constant K_D was calculated as the kd/ka ratio.

[2] = molecular target: T2, monkey (rhesus) LAG3 expressed on HEK293A cells (monkey (rhesus), UniProt A0A5F8A874 23-533); experiment: FACS on HEK293A cells expressing rhesus LAG3
T2 construct: whole, on cells; also called HEK293A/rh LAG3
T2 sequence: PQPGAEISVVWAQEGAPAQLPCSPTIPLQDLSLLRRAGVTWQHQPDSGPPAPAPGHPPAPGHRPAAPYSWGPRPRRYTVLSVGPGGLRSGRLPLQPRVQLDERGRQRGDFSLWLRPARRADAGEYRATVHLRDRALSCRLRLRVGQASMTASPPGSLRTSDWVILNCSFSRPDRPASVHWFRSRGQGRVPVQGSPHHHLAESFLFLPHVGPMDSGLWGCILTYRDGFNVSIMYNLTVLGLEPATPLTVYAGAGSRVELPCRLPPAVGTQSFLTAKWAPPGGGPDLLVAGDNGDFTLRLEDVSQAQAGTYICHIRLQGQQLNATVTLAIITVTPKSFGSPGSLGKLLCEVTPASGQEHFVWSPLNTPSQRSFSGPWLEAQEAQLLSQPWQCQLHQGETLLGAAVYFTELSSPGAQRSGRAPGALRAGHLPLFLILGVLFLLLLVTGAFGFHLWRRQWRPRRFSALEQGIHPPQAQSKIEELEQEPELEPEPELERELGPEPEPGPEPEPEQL

[3] = molecular target: T1, recombinant human LAG3(ECD)-his (Sino …); experiment: SPR (BIAcore 8K), human LAG3(ECD)-his coupled to chip, antibody injected, 1:1 Langmuir
Description: as §1

[4] = molecular target: T3, mouse LAG3 expressed on HEK293A cells (mouse, UniProt Q61790 24-521); experiment: FACS on HEK293A cells expressing mouse LAG3
T3 construct: whole, on cells; also called HEK293A/mouse LAG3
T3 sequence (looked up): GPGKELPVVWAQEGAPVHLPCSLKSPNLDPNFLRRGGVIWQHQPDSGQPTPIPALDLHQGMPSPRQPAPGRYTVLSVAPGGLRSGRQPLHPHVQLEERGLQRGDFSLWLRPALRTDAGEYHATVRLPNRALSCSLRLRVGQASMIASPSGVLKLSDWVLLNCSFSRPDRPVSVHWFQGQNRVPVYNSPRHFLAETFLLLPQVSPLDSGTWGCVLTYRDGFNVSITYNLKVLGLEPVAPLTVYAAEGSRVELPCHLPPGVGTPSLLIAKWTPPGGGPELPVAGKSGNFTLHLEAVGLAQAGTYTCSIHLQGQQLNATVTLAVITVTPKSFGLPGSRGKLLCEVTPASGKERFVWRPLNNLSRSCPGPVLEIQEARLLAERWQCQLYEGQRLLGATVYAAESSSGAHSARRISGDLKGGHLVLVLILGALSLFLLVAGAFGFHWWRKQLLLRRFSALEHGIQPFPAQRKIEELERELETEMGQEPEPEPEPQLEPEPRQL

[5] = molecular target: T4, human LAG3 expressed on HEK293A cells (human, UniProt P18627 23-525); experiment: FACS on HEK293A cells expressing human LAG3
T4 construct: whole, on cells; also called HEK293A/human LAG3
T4 sequence (looked up): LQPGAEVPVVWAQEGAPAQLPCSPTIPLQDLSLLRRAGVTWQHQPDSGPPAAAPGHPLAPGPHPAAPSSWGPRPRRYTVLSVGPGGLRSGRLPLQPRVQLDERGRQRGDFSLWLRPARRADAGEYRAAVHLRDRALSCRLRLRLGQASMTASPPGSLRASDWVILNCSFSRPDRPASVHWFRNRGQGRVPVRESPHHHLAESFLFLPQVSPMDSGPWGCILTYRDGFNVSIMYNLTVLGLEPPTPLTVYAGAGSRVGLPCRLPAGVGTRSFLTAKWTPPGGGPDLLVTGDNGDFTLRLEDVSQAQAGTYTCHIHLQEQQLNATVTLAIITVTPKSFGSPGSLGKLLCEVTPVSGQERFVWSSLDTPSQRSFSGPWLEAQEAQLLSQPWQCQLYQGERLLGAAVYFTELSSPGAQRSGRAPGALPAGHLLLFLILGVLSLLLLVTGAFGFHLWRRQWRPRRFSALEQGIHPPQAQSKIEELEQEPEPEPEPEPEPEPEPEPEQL

[6] = molecular target: T3, mouse LAG3 expressed on HEK293A cells; experiment: FACS on HEK293A cells expressing mouse LAG3; remark: listed apart in the source
[7] = molecular target: T2, monkey (rhesus) LAG3 expressed on …; experiment: FACS on HEK293A cells expressing rhesus LAG3; remark: listed apart in the source
Description: (§2) Briefly, 10^5 HEK293A cells in 50 μl PBS buffers were seeded into each well of the 96-well plates and then added with 50 μl of serially diluted anti-LAG3 antibodies (5-fold dilution, starting from 40 μg/ml). After incubated at 4° C. for 1 hour, plates were washed 3 times with PBST. Then, an APC coupled Goat Anti-Mouse IgG (BioLegend, US, Cat #: 405308) diluted 500× was added to the plates. After incubation at 4° C. for 1 hour, the plates were washed with PBS for 3 times and then cell fluorescence was monitored using a FACS machine (BD).
(§3) Further, the binding activities of the two antibodies to actived human PBMCs were investigated by FACS. Briefly, human PBMCs were collected by density gradient centrifugation and then re-suspended in the complete medium (RPMI medium+10% FBS+ human IL-2 (20 IU/ml, R&D, Cat #: 202-IL)+ Dynabeads™ Human T-Activator CD3/CD28 (Gibco, Cat #: 11132D)) at 37° C. under 5% CO_2 in a humidified incubator for 2 days to get activated T cells. The cells were then collected and tested by FACS as described in Example 6.

[8] = molecular target: T5, monkey LAG3(ECD)-mFc protein (ACRO, Cat #: LA3-052A0) (monkey); experiment: SPR (BIAcore 8K), monkey LAG3(ECD)-mFc coupled to chip, antibody injected, 1:1 Langmuir
T5 construct: extracellular domain; Bought protein
Description: as §1

[9] = molecular target: T6, Human PBMC; experiment: FACS on activated human PBMC
T6 chain: T4 sequence (looked up)
Description: as §2, §3

[10] = molecular target: T1, recombinant human LAG3(ECD)-his (Sino …); experiment: ELISA on coated human LAG3(ECD)-his
Description: The wells were blocked with 200 µl of blocking buffer (PBS containing 1% BSA, 1% goat serum, and 0.05% Tween 20) for 2 hours at room temperature, and then 100 µl of serially diluted anti-LAG3 antibodies (starting from 40 µg/ml) were added to each well and incubated for 1 hour at RT. Plates were washed for 3 times with PBST (PBS+0.05% Tween 20), added with Goat-anti-mouse IgG-HRP (Sigma, US, Cat #: A9309-1 ml) diluted 5000×, and incubated for 1 hour at RT. Plates were developed with freshly prepared Ultra-TMB (BD, US, Cat #:555214) for 5 minutes at RT. Absorbance was read on a SpectraMaxR i3X (Molecular Devies, US) at 450 nm.
as §3

koff [1]: 0.000335 s⁻¹
EC50 (read off the curve) [2]: ~0.4 µg/mL
Kd [3]: 0.833 nM
kon [3]: 403000 M⁻¹ s⁻¹
binding result [4]: no binding
EC50 (read off the curve) [5]: ~0.05 µg/mL
B1: chimeric 101F4 antibody (antibody, human IgG4 S228P, kappa, V domains shown)
VH: EVQLEQSGAELVRPGASVTLSCKASGYTFTDYEMHWVKQTPVYGLEWMGAIDPETGGIVYNQRFKGKAILTADKSSSTAYMELRSLTSEDSAVYYCTGAGWGYWGQGTTLTVSS
VL: DIVITQSPSSMYASLGERVTITCKASQDINSYLSWFQQKPGKSPKTLIYRANRLLDGVPSRFSGSGSGQDYSLTISSLEFEDMGLYYCLQYDEFPFTFGSGTKLEIKR
notes: Mouse variable regions on human IgG4 (S228P)/kappa constant regions; also called 101F4-CM

Kd [3]: 0.737 nM
kon [3]: 93900 M⁻¹ s⁻¹
binding result [6]: no binding
EC50 (read off the curve) [5]: ~0.09 µg/mL
B2: chimeric 134G10 antibody (antibody, human IgG4 S228P, kappa, V domains shown)
VH: EVQLVESGGDLVKPGGSLKLSCAASGFTFSSFGMSWVRQTPDKRLEWVGIISSGGTYTFYPDILKGRFTISRDNAKNTLYLQMSSLKSEDTAMYYCARVYSDYDGRFDYWGQGTTLTVSS
VL: DIVMTQSPSSLSVSAGEKVTMNCKSSQSLLNSGNQKNYLAWYQQKPGQPPKLLIYGASTRESGVPDRFTGSGSGTDFTLTISSVQAEDLAVYYCQNDHSYPLTFGAGTKLELKR
notes: Mouse variable regions on human IgG4 (S228P)/kappa constant regions; also called 134G10-CM

koff [1]: 0.000214 s⁻¹
EC50 (read off the curve) [7]: ~0.8 µg/mL
Kd [3]: 2.05 nM
kon [3]: 104000 M⁻¹ s⁻¹
Kd [8]: 0.98 nM
EC50 (read off the curve) [9]: ~0.02 µg/mL
EC50 (read off the curve) [10]: ~1 µg/mL
B3: humanized (with affinity maturation) antibody 101F4H2L2-8 (antibody, human IgG4 S228P, kappa, V domains shown)
VH: QVQLVQSGAEVKKPGASVKVSCKVSGYTFTDYEMHWVRQAPGKGLEWMGAIDPETGGIVYNQRFKGRVTLTADTSTDTAYMELSSLRSEDTAVYYCATTGWNDWGQGTTVTVSS
VL: DIQMTQSPSSLSASVGDRVTITCKASQDINSYLSWYQQKPGKAPKLLIYRANRLLDGVPSRFSGSGSGQDYTLTISSLQPEDFATYYCQQYDEFPFTFGQGTKLEIKR
